In paper PMC2865030:

Tests used:
Experiment in all cases: ITC
[1] = biological target: yeast Hsp90 (wild type, His-tagged) (yeast) (UniProt P02829)
[2] = biological target: C-terminal domain of yeast Hsp90 (yeast)
[3] = biological target: yeast Hsp90 M705V (His-tagged) (yeast) (UniProt P02829)

Kd [1]: 780 nM
stoichiometry N [1]: 1.1
Kd [2]: 320 nM
stoichiometry N [2]: 0.93
Kd [3]: 13000 nM
stoichiometry N [3]: 0.83
B1: Tah1 (TPR-containing protein associated with Hsp90) (natural protein)
chain: MSQFEKQKEQGNSLFKQGLYREAVHCYDQLITAQPQNPVGYSNKAMALIKLGEYTQAIQMCQQGLRYTSTAEHVAIRSKLQYRLELAQGAVGSVQIPVVEVDELPEGYDRS
